For experiment [1], the target named is T1, human Axl ECD construct (Full Axl) with linker+His+Avi tag (human, UniProt P30530 26-451).
T1 construct: tested as Expi293 supernatant; also called ECD domain of human Axl
T1 sequence: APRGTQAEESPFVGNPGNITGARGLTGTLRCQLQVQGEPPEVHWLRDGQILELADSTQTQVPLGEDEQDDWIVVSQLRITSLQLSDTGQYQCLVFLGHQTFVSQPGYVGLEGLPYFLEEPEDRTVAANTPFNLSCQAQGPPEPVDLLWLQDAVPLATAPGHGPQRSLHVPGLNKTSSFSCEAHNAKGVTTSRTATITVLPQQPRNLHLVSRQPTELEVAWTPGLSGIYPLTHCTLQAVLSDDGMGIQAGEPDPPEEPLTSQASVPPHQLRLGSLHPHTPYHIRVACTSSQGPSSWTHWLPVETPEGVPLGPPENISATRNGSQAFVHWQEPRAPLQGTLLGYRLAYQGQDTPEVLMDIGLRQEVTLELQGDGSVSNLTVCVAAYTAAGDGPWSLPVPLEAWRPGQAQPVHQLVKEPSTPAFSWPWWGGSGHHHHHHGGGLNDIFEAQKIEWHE
Nature of the experiment: SPR, Carterra LSA, antibody immobilised, construct supernatant injected. On the procedure:
Binding of anti-MerTK antibodies of the present disclosure to these domain-swapped chimera or deletion mutants (prepared as described above) was tested by Surface Plasmon Resonance (SPR) using Carterra LSA. Purified anti-MerTK antibodies were immobilized in duplicate on a HC30M chip (Carterra) by amine coupling, following the manufacturer's instructions (described previously). Supernatants containing the constructs were diluted 1:1 with running buffer containing 0.5 mg/mL BSA (HBS-TE, Carterra) and injected over the immobilized antibodies. The surface was regenerated with 10 mM Glycine pH2.0 after each construct injection. Sensorgrams were analyzed using Carterra Epitope software to identify patterns of construct binding. Loss of binding to MerTK constructs with domains deleted or swapped in from Axl and/or gain of binding to Axl constructs with MerTK domains swapped in were evaluated. Data from these studies was used to construct a domain binding map for anti-MerTK antibodies and their binding to various domains of human MerTK.
(In general: SPR reads the build-up and loss of mass on a sensor chip optically.)

The target in experiment [2] is T2, Recombinant human MerTK human Fc Chimera protein (R&D systems, Cat #391-MR-100) (human, UniProt Q12866 26-499, limits assumed).
T2 construct: Bought; also called recombinant human MerTK protein; MerTK-Fc
T2 sequence: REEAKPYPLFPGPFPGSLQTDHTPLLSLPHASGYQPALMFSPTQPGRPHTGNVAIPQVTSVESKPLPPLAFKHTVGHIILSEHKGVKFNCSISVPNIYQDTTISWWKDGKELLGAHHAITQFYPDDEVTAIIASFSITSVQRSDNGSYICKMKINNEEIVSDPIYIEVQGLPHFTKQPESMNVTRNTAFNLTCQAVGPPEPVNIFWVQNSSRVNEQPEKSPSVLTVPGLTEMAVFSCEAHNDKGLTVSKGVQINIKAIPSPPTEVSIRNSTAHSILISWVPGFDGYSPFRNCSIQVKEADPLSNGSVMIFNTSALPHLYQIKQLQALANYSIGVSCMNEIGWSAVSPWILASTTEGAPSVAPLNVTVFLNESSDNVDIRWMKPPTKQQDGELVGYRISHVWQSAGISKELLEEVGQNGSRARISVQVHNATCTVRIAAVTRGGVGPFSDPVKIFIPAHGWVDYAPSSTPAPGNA
Put plainly: competition ELISA: His-tagged Gas6 (3 ug/ml) binding to captured human MerTK-Fc, anti-His-HRP detection; blocked ligand Gas6. On the procedure:
(§1) Rabbit anti-human IgG polyclonal antibody (Jackson ImmunoResearch, Cat #309-005-008) was captured to a high-protein binding plate at 2 μg/ml 4° C. overnight. After washing with 0.05% Tween20 in PBS three times, 5% BSA in PBS was added for 1 hour. Recombinant human MerTK human Fc Chimera protein (R&D systems, Cat #391-MR-100) was added at 2 μg/ml for 1 hour and the plates were then washed. Anti-MerTK antibodies were titrated to final concentration range of between 66.6 nM to 4 pM and then 40 μl of serially diluted antibody and 40 μl of His tag-conjugated recombinant Gas6 protein (R&D systems, Cat #885-GSB-050) at 3 μg/ml or His tag-conjugated recombinant ProS protein (R&D systems, Cat #9489-PS-100) at 20 μg/ml. After a further incubation for 1 hour, plates were washed and incubated for 1 hour with HRP-conjugated anti-6×His tag antibody (Abcam, Cat #ab1187). Plates were then washed and an HRP substrate (TMB) was used to develop the plates. After sufficient color change was observed, the reaction was stopped by adding 50 μl 2N H₂SO₄ and the OD was measured using a spectrophotometer (BioTek).

Experiment [3] addresses T2, Recombinant human MerTK human Fc …. Nature of the experiment: competition ELISA: His-tagged ProS (20 ug/ml) binding to captured human MerTK-Fc, anti-His-HRP detection; blocked ligand ProS. On the procedure:
as §1
A general note: ELISA stands for enzyme-linked immunosorbent assay.

The source of these data is patent publication US20210261685A1 (Alector, published 2021).

B1: MTK-16 (antibody, human IgG1, V domains shown)
VH: LIQLVQSGPELKKPGETVKISCKASGYTFTNHGMNWVKQDPGKGLKWMGWINTYTGEPTYADDFKGRFVFSMETSASAAFLQINNLKNEDTATYFCARKGVTAARYFDYWGQGTTLTVSS
VL: DIVMTQSPKFMSTSVGDRVSITCKASQNVRTAVAWYKKKPGQSPKALINLASNRHTGVPDRFTGSGSGTDFTLTISNVQSEDLADYFCLQHWNYPLTFGGGTKLEIK
In the case of B1, the binding result in experiment [1] is given as “no binding”. Also, the “IC50 (read off the curve)” value in experiment [2] was about 7 nM.

B2: MTK-29 (antibody, human IgG1, V domains shown)
VH: QIQLVQSGPELKKPGETVKISCKSSGFTFTTYGMSWVKQAPGKGLKWMGWINTYSGVPTYTDDFKGRFAFSLETSASTASLQINNLKNEDTATYFCARYTNYGYFDYWGQGTTLTVSS
VL: QIVLSQSPAILSASPGEKVTMTCRATSSVGYMHWYQQKPGSSPKPWIYATSNLASGVPARFSGSGSGTSYSLTISRVEAEHAATYYCQQWGSNPFTFGSGTKLEIK
For B2, the binding result in experiment [1] is “no binding”.

B3: MTK-06 (antibody, human IgG1, V domains shown)
VH: QIQLVQSGPELKKPGETVKISCKASGYTFTNYGMNWVKQAPGKGLKWMGWINTNTGEPTYAEEFKGRFAFSLETSASTAYLQINNLKNEDTATYFCARYYNYWYFDVWGAGTTVTVSS
VL: QIVLSQSPAILSASPGEKVTMTCRASSSVSYMHWYQQKPGSSPKPWIYATSNLASGVPARFSGSGSGTSYSLTISRVEAEDAATYYCQQWSSKPPTFGGGTKLEIK
With B3, the binding result in experiment [1] is given as “no binding”.

B4: MTK-15 (antibody, human IgG1, V domains shown)
VH: QIQLVQSGPELKKPGETVKISCKASGYTFTNYGVHWVKQAPGKGLKWMGWINTYTGEPTYADDFKGRFAFSLETSASTAYLQINNLKNEDMATYFCARGNRYAYMDYWGQGTSVTVSS
VL: QIVLSQSPAILSASPGEKVTMTCRASSSVSYMHWYQQKSGSSPKPWIYATSNLASGVPARFSGSGSGTSYSLTISRVEAEDAATYYCQQWSSNPRTFGGGTKLEIK
Regarding B4, the binding result in experiment [1] is on record as “no binding”.

B5: MTK-03 (antibody, human IgG1, V domains shown)
VH: DVQLQESGPGLVKPSQSLSLTCSVTGYSITSGYYWNWIRQFPGNTLEWMGYMSFDGDNKFNPSLKNRISITRDTSKNQFFLRLNSVTTEDTATYYCARGGYNYGSTEANWGQGTLVTVSA
VL: QIVLTQSPAIMSAFPGEKVTITCSASSSVNYMHWFQQKPGTSPKLWIYSTSNLASGVPARFSGSGSGTSYSLTISRMEAEDAATYYCQQRSSYPFTFGSGTKLEIK
On to B5, for which the “IC50 (read off the curve)” value in experiment [3] was about 4 nM.

B6: MTK-07 (antibody, human IgG1, V domains shown)
VH: DVQLQESGPGLVKPSQSLSLTCSVTGYSITSGYYWNWIRQFPGNTLEWMGYMSFDGDNKFNPSLKNRISITRDTSKNQFFLRLNSVTTEDTATYYCARGGYNYGSTEANWGQGTLVTVST
VL: QIVLTQSPAIMSAFPGEKVTITCSASSSVTYMHWFQQKPGTSPKLWIFSTSNLASGVPARFSGSGSGTSYSLTISRMEAEDAATYYCQQRSSYPFTFGSGTKLEIK
In the case of B6, the “IC50 (read off the curve)” value in experiment [2] is about 8 nM; in experiment [3], about 3 nM.

B7: MTK-33 (antibody, human IgG1, V domains shown)
VH: QVQLQQPGPELVRPGTSVKLSCKASGYTFTSYWMHWIKQRPGQGLEWIGVIDPSDNYINYNQKFKGKATLTVDTSSSTAYLQLSSLTSEDSAVYYCAREAGTRGYFDYWGQGTTLTVSS
VL: SIVMTQTPKFLLVSAGDRVIITCKASQSVSNTVAWYQQKPGQSPKLLIYYASNRYTGVPDRFTGSGYGTDFTFTISTVQAEDLAVYFCQQDYRSPFTFGSGTQLEMK
Regarding B7, the binding result in experiment [1] was “no binding”.

B8: MTK-17 (antibody, human IgG1, V domains shown)
VH: QIQLVQSGPELKKPGETVKISCKASGYTFTNFGMNWVKQAPGKGLKWMGWINTYTGEPTYADDFKGRFAFSLETSASTAYLQINNLKNEDTATYFCSRGAVLRAGAMDCWGQGTSVTVSS
VL: DIQMTQSSSYLSVSLGGRVTITCKASDHINNWLAWYQQKPGNAPRLLISGATSLETGVPSRFSGSGSGKDYTLSITSLQTEDVATYYCQQYWSTPRTFGGGTKLEIK
For the molecule B8, the “IC50 (read off the curve)” value in experiment [3] lay in the range of 5 to 8 nM.

B9: MTK-10 (antibody, human IgG1, V domains shown)
VH: QVTLKESGPGILQPSQTLSLTCSFSGFSLTTSGMGVGWIRQPSGKGLEWLAHIWSDDDKRSNPALKSRLTISQDSSTNQVFLKIASVDTADSATYYCSHLTPVREFAYWGPGTLVTVSE
VL: DIQMTQTTSSLSASLGDRVTISCSASQGISNYLNWFQQKPDGTVKLLIYYTSRLHSGVPSRFSGSGSGTDFSLTISNLEPEDIATYYCQQYTKLPYTFGGGTKLEIK
As for B9, the binding result in experiment [1] is “no binding”.

B10: MTK-30 (antibody, human IgG1, V domains shown)
VH: QVQLQQPGTELVRPGASVKLSCKASGYTFTSYWMHWVKQRPGQGLEWIGNLNPNNGGTYYNEKFKSKATLTVDKSSSTAYMQLSSLTSEDSAVYYCARQILLYFDYWGQGTTLTVSS
VL: DVLMTQTPLSLPVSLGDQASISCRSSQSIVHSNGDTYLEWYLQKPGQSPKLLIYKVSNRFSGVPDRFSGSGSGTDFTLKISRVEAEDLGVYYCFQGSHVPWTFGGGTKLEIK
Regarding B10, in experiment [1], the binding result was “no binding”.

B11: MTK-18 (antibody, human IgG1, V domains shown)
VH: QIQLVQSGPELKKPGETVKISCKASGYTFTHYGMTWVKQAPGKGLKWMGWINTYTGEPTYADDFKGRFAFSLETSASTAYLQINNLKNEDTATYFCARGGGQLGLRPLDYWGQGTTLTVSS
VL: DIQMTQTTSSLSASLGDRVTFSCRASQAISNYLNWYQQKPDGTVKLLIYYTSRLHSGVPSRFSGSGSGTDYSLTISNLEQEDIATYFCQQGNTLPWTFGGGTKLEIK
B11: the “IC50 (read off the curve)” value in experiment [3] was about 5 nM.

B12: MTK-21 (antibody, human IgG1, V domains shown)
VH: QIQLVQSGPELKKPGETVKISCKASGYTFTNFGMTWVRQAPGMDLKWMGWINTYTGEPKYADDFKGRFALSLETSASTAYLQITNFKNEDTATYFCARGGGRLGLRPLDYWGQGTTLTVSS
VL: DIQMTQTTSSLSASLGDRVTISCRASQDINNYLNWYQQKPDGTVKLLIYYTSSLHSGVPSRFSGSGSGTDYSLTITNLEQEDIATYFCQQGNTLPWTFGGGTRLEIK
With B12, in experiment [1], the binding result is given as “no binding”. The “IC50 (read off the curve)” value in experiment [2] was about 6 nM.
